Assay [1] concerns the target T1, C1-Ten SH2 domain (C1-Ten/Tensin2) (Homo sapiens, UniProt Q63HR2, K1142Q/K1155Q/K1157Q).
T1 sequence (Q63HR2 1120-1253 K1142Q/K1155Q/K1157Q): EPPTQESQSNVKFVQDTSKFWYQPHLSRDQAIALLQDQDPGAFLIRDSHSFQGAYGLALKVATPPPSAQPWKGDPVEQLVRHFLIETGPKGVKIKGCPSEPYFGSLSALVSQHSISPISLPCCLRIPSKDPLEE
The assay can be described thus: equilibrium SPR, L1 chip with lipid vesicles. The class given is binding.

For assay [2], the target named is T2, C1-Ten SH2 domain (C1-Ten/Tensin2) (Homo sapiens, UniProt Q63HR2).
T2 sequence (Q63HR2 1120-1253): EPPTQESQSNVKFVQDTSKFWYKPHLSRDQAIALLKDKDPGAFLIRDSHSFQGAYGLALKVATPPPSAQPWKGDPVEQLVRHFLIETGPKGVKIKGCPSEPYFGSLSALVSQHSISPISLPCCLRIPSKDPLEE
The assay can be described thus: equilibrium SPR, L1 chip with lipid vesicles. The format is binding.

The target in assay [3] is T3, C1-Ten/Tensin2 SH2 domain, wild type (UniProt Q63HR2 1120-1253).
T3 sequence (looked up): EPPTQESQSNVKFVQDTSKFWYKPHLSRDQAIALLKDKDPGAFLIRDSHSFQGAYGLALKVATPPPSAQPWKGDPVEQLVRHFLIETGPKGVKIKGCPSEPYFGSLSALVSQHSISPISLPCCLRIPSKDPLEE
The assay can be described thus: fluorescence polarisation.

In assay [4] the target is T4, C1-Ten/Tensin2 SH2 domain K1142Q/K1155Q/K1157Q (UniProt Q63HR2 1120-1253, K1142Q | K1155Q | K1157Q).
T4 sequence (looked up): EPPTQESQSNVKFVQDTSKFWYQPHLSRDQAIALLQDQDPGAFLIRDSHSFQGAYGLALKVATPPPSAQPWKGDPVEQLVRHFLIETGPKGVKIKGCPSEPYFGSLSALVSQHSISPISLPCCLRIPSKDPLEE
In words: fluorescence polarisation. (In general: In fluorescence polarisation assays a small probe gives low polarisation when free and higher when bound to something large.)

The target of assay [5] is T5, C1-Ten/Tensin2 SH2 domain R1165A (UniProt Q63HR2 1120-1253, R1165A).
T5 sequence (looked up): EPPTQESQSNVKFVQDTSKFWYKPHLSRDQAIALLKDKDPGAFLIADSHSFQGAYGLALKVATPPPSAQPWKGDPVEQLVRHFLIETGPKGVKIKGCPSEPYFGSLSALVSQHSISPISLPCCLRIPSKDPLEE
The assay can be described thus: fluorescence polarisation.

Non-standard residues stand in square brackets, D forms with d. No end group written: not given here. fluorescein = fluorescein-6-aminohexanoyl label; pY = N[C@@H](Cc1ccc(OP(=O)(O)O)cc1)C(=O)O; Ahx = NCCCCCC(=O)O

For orientation: Kd means the constant that tells how readily two partners part at equilibrium.

For `CCCCCCCCCCCCCCCC(=O)OC[C@H](COP(=O)(O)O[C@H]1[C@H](O)[C@@H](OP(=O)(O)O)[C@H](OP(=O)(O)O)[C@@H](OP(=O)(O)O)[C@H]1O)OC(=O)CCCCCCCCCCCCCCC` [PtdIns(3,4,5)P3], the Kd amounted to 1260 ± 128 nM in assay [1] and 260 ± 40 nM in assay [2].

B1: F-Ahx-NEpYDNV, fluorescein-6-aminohexanoyl-labeled pY-containing peptide (peptide)
peptide: {fluorescein-Ahx}-NE[pY]DNV
For the molecule B1, the results for the Kd in assay [3], in assay [4] and in assay [5] were 2500 ± 1300 nM, 3.6 ± 1.4 µM and 90.9 ± 11.4 µM, respectively.
